Data as given in patent US20020164609A1 (SCHERING, published 2002).

T1: Flag-tagged human WSX-1/TCCR on Ba/F3 cells (F-hWSX-1) (human, UniProt Q6UWB1 33-636)
T1 construct: Retroviral pMX construct expressed on the surface of Ba/F3 cells; also called hNR30; F-tagged WSX-1/TCCR
T1 sequence: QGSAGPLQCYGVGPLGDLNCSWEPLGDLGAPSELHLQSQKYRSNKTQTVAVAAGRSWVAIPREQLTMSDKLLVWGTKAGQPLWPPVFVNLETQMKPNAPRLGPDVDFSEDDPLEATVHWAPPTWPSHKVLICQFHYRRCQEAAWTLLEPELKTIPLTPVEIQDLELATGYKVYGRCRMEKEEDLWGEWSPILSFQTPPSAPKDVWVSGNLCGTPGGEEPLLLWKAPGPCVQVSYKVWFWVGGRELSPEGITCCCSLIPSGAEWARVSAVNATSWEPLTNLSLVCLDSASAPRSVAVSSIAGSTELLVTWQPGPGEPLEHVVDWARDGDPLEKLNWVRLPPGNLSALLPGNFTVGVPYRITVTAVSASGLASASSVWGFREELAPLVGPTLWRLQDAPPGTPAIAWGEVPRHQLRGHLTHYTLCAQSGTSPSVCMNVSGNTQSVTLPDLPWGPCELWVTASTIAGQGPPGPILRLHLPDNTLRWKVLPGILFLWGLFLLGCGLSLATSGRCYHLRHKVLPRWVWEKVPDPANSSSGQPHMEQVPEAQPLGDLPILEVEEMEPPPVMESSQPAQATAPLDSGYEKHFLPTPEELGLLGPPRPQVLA

T2: soluble human WSX-1/TCCR with C-terminal RGSH6 tag (shWSX-1-R) (human, UniProt Q6UWB1 33-516)
T2 construct: Produced in HEK293T supernatants; also called shNR30R; soluble hWSX-1-R
T2 sequence: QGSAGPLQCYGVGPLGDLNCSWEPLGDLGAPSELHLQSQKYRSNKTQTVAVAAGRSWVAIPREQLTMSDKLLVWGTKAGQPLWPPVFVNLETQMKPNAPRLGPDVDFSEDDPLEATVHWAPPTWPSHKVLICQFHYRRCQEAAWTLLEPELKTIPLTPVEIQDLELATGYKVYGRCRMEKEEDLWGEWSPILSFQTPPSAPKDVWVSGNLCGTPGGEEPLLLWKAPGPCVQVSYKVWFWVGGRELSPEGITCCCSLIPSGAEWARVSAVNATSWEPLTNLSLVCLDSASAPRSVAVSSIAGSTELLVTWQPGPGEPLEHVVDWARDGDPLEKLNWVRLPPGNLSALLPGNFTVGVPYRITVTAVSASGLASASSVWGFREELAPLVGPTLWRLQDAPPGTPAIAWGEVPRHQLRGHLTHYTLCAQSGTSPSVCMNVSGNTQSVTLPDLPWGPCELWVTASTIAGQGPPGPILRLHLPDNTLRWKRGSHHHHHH

T3: Flag-tagged mouse WSX-1 on BaF3 cells (F-mWSX-1) (mouse, UniProt O70394 25-623)
T3 construct: whole, on cells; Retroviral pMX construct expressed on the surface of Ba/F3 cells
T3 sequence (looked up): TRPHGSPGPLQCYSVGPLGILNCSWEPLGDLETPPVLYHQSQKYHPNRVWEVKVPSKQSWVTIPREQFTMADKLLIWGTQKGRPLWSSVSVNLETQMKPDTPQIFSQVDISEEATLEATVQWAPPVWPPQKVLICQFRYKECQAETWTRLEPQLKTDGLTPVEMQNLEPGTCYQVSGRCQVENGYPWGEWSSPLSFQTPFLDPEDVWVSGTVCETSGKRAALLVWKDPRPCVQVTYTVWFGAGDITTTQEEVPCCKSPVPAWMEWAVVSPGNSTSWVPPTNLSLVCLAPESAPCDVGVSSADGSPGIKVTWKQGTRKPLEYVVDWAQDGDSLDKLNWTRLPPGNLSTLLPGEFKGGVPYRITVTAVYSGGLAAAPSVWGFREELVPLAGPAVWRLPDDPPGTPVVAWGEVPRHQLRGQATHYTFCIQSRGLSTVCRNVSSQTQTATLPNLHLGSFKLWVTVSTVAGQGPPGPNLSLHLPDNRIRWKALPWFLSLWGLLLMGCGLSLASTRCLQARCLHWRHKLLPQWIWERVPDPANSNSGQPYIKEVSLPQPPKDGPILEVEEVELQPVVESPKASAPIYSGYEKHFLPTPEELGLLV

B1: human EBI3-Ig fusion (hEBI3-Ig) (Fc fusion)
chain: RKGPPAALTLPRVQCRASRYPIAVDCSWTLPPAPNSTSPVSFIATYRLGMAARGHSWPCLQQTPTSTSCTITDVQLFSMAPYVLNVTAVHPWGSSSSFVPFITEHIIKPDPPEGVRLSPLAERHVQVQWEPPGSWPFPEIFSLKYWIRYKRQGAARFHRVGPIEATSFILRAVRPRARYYVQVAAQDLTDYGELSDWSLPATATMSLGK
notes: Secreted fusion protein; also called EB133-Ig (so in the source); not shown: Ig part from the pME18S-Ig vector
B2: Flag-tagged human EBI3 (F-hEBI3) (other)
chain: B1 chain
notes: Mature portion of human EBI3 cloned into pFlagCMV-1, produced in HEK293T cells; also called human Epstein-Barr virus-induced gene 3; not shown: N-terminal Flag tag from pFlagCMV-1
B3: E-tagged mouse IL-D80 (mIL-D80-E) (ligand)
chain: FPTDPLSLQELRREFTVSLYLARKLLSEVQGYVHSFAESRLPGVNLDLLPLGYHLPNVSLTFQAWHHLSDSERLCFLATTLRPFPAMLGGLGTQGTWTSSEREQLWAMRLDLRDLHRHLRFQVLAAGFKCSKEEEDKEEEEEEEEEEKKLPLGALGGPNQVSSQVSWPQLLYTYQLLHSLELVLSRAVRDLLLLSLPRRPGSAWDS
notes: also called mp28-E; mouse p28; not shown: E-tag from the pCDM8-etag vector
B4: mouse EBI3-Ig fusion (mEBI3-Ig) (Fc fusion, UniProt O35228 19-228, looked up)
chain: YTETALVALSQPRVQCHASRYPVAVDCSWTPLQAPNSTRSTSFIATYRLGVATQQQSQPCLQRSPQASRCTIPDVHLFSTVPYMLNVTAVHPGGASSSLLAFVAERIIKPDPPEGVRLRTAGQRLQVLWHPPASWPFPDIFSLKYRLRYRRRGASHFRQVGPIEATTFTLRNSKPHAKYCIQVSAQDLTDYGKPSDWSLPGQVESAPHKP
notes: mature; Secreted fusion protein; not shown: Ig part from the pME18S-Ig vector

How the values were obtained:
[1] = biological target: T1, Flag-tagged human WSX-1/TCCR on Ba/F3 …; assay: flow cytometry on BaF3 cells expressing F-hWSX-1, two hours incubation
[2] = biological target: T2, soluble human WSX-1/TCCR with …; assay: co-immunoprecipitation and western blot; F-hEBI3 alone against shWSX-1-R supernatant
Protocol: The primary pricipitates were washed and then incubated with HEK293T cell supernatants containing shWSX-1-R. Secondary precipitates were separated by SDS-PAGE and subjected to western blot. Precipitaited proteins were visualized by ECL using antibodies against the respective protein tags.

[3] = biological target: T3, Flag-tagged mouse WSX-1 on BaF3 cells …; assay: flow cytometry on mWSX-1-expressing BaF3 cells

Binder	binding result [3]	further results
B1	–	binding result [1]: no binding
B2	–	binding result [2]: no binding
B3	no binding	–
B4	no binding	–
